Reference: patent US20050032185

Key:
[1] = target: GST-PKBα (full length human protein kinase Bα with N-terminal glutathione S-transferase, from unstimulated 293 cells) [GST: P08515]
Sequence of GST-PKBα (full length human protein kinase Bα with N-terminal glutathione S-transferase, from unstimulated 293 cells) [GST: P08515] (P08515 whole entry, looked up): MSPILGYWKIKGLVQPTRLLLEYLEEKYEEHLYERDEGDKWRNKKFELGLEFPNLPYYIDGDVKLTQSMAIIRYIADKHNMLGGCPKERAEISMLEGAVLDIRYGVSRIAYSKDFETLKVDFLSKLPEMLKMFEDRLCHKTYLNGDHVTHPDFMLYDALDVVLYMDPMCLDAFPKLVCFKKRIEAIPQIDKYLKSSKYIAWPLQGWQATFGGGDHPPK

B1: PDK1 (form and source not specified in the sentence) (enzyme, UniProt O15530 1-556, looked up, species assumed)
3-phosphoinositide-dependent protein kinase 1: MARTTSQLYDAVPIQSSVVLCSCPSPSMVRTQTESSTPPGIPGGSRQGPAMDGTAAEPRPGAGSLQHAQPPPQPRKKRPEDFKFGKILGEGSFSTVVLARELATSREYAIKILEKRHIIKENKVPYVTRERDVMSRLDHPFFVKLYFTFQDDEKLYFGLSYAKNGELLKYIRKIGSFDETCTRFYTAEIVSALEYLHGKGIIHRDLKPENILLNEDMHIQITDFGTAKVLSPESKQARANSFVGTAQYVSPELLTEKSACKSSDLWALGCIIYQLVAGLPPFRAGNEYLIFQKIIKLEYDFPEKFFPKARDLVEKLLVLDATKRLGCEEMEGYGPLKAHPFFESVTWENLHQQTPPKLTAYLPAMSEDDEDCYGNYDNLLSQFGCMQVSSSSSSHSLSASDTGLPQRSGSNIEQYIHDLDSNSFELDLQFSEDEKRLLLEKQAGGNPWHQFVENNLILKMGPVDKRKGLFARRRQLLLTEGPHLYYVDPVNKVLKGEIPWSQELRPEAKNFKTFFVHTPNRTYYLMDPSGNAHKWCRKIQEVWRQRYQSHPDAAVQ
p70 S6 kinase
  phosphorylation: PDK1 has been shown by us to phosphorylate p70 S6 kinase in the absence of InsPtd(3,4,5)P3
Protein kinase Bγ
  phosphorylation and activation: PDK1 phosphorylates and activates not only PKBα but also PKBβ and PKBγ
Protein kinase Bβ
  phosphorylation and activation: PDK1 phosphorylates and activates not only PKBα but also PKBβ and PKBγ

B2: GST-DSTPK61 (residues 1-752 of Drosophila Serine/Threonine Protein Kinase-61, expressed in E. coli) (protein)
chain: MKCKSWSNKINNYVVRKIKSIKINGTQQQLQLPGSGASGIAAAAVITVASDCGENCSSNGTEHQQHFNIATTTATSATEATMPAMAKEKASATVSLGESNFRDINLKDLAVVVEAASRLHHQQNVCGCGAVSSTENNNNSRYGSSKYLTNGHTSPLAAAVASNSSSVATTPHCRMLHNCSLQQYQNDIRQQTEILDMLRQQHQQGYQSQQQQQQPQQQQEQQQQQEQSQQQQQLQNPAPRRSPNDFIFGRYIGEGSYSIVYLAVDIHSRREYAIKVCEKRLILRERKQDYIKREREVMHQMTNVPGFVNLSCTFQDQRSLYFVMTYARKGDMLPYINRVGSFDVACTRHYAAELLLACEHMHRRNVVHRDLKPENILLDEDMHTLIADFGSAKVMTAHERALATEHCSEQRRSNSDEDDEDSDRLENEDEDFYDRDSEELDDGDDEQQQEEMDSPRHRQRRYNRHRKASFVGTAQYVSPEVLQNGPITPAADLWALGCIVYQMIAGLPPFRGSNDYVIFKEILDCAVDFPQGFDKDAEDLVRKLLRVDPRDRLGAQDEFGYYESIRAHPFFAGIDWQTLRQQTPPPIYPYLPGVSQDEDFRSSYTVPGDLEPGLDERQISRLLSAELGVGSSVAMPVKRSTAKNSFDLNDAEKLQRLEQQKTDKWHVFADGEVILKKGFVNKRKGLFARKRMLLLTTGPRLIYIDPVQMIKKGEIPWSPDLRAEYKNFKIFFVHTPNRTYYLDDPEGYAIHW
[1]
  increase in GST-PKBα activity at maximal phosphorylation: paralleled by a 35 fold increase in activity
  maximal phosphorylation of GST-PKBα (mol phosphate per mol protein): the phosphorylation of GST-PKBα reached 0.75 mol phosphate per mol protein
  specific activity towards GST-PKBα in the presence of PtdIns(3,4,5)P3: bacterially expressed GST-DST PK61 (280 U/mg)
